The experiment deals with T1, streptolysin O (SLO) secreted by Group A Streptococcus strain JRS4 (Streptococcus pyogenes JRS4 (serotype …, UniProt Q5XE40)).
T1 construct: also called GAS pore-forming toxin; bacterial cytolysin
Put plainly: co-IP. The conditions noted are these: partners not purified.

B1: STAND-HS1 (anti-SLO intrabody) (scFv, V domains shown)
VH: EVQLQESGPSLVKPSQTLSLTCSVTGDSITSGYWNWIRKFPGNKFEYMGYISYGDSTYYNPSLKSRISITRDTSKNQYYLQLNSVTTEDTATYYCARLGNDYNWYFDVWGAGTTVTVSS
VL: DIQMNQSPSSLSASLGDTITITCHASQNINVWLSWYQQKPGNIPKLLIFKASNLYTGVPSRFSGSGSGTGFTLTISSLQPEDIATYYCQQGQTYPLTFGGGTKL
notes: also called anti-SLO scFv; anti-SLO intracellular antibody; not shown: 3xFLAG, N-terminal, kept
As for B1, the binding result is “binds”.

Values taken from PMC10558455, “Rab41-mediated ESCRT machinery repairs membrane rupture by a bacterial toxin in xenophagy” (Nature Communications, 2023).
